Measured values published in patent US9988424 (DUKE UNIVERSITY, dated 2018).

Columns and labels:
Env of SHIV SF162P3 = Env of SHIV SF162P3 (SHIV); assay: cell-based or functional assay
Env of SHIV-SF162P4 = Env of SHIV-SF162P4 (SHIV); assay: cell-based or functional assay
Env of SHIV-BaL = Env of SHIV-BaL (SHIV); assay: cell-based or functional assay
Env of SHIV-1157ipEL-p = Env of SHIV-1157ipEL-p (SHIV); assay: cell-based or functional assay
Env of SHIV-1157ipd3N4 = Env of SHIV-1157ipd3N4 (SHIV); assay: cell-based or functional assay
gp70 B.HXB2/BALV1V2 = target: T1, gp70 B.HXB2/BALV1V2 (murine leukemia virus; HIV-1); assay: ELISA
T1 chain: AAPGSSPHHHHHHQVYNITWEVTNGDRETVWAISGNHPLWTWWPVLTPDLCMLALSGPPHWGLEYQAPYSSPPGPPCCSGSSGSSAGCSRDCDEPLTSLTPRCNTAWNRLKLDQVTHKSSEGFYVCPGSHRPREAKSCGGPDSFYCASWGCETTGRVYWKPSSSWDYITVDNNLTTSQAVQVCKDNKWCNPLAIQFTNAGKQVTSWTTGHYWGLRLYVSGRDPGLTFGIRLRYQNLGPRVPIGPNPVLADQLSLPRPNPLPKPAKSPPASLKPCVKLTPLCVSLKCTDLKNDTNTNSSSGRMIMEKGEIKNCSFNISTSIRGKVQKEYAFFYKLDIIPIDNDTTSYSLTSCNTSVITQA

[1] = target: T2, gp70 B.HXB2/BALV1V2/N156QN160Q (murine leukemia virus; HIV-1); assay: ELISA
T2 chain: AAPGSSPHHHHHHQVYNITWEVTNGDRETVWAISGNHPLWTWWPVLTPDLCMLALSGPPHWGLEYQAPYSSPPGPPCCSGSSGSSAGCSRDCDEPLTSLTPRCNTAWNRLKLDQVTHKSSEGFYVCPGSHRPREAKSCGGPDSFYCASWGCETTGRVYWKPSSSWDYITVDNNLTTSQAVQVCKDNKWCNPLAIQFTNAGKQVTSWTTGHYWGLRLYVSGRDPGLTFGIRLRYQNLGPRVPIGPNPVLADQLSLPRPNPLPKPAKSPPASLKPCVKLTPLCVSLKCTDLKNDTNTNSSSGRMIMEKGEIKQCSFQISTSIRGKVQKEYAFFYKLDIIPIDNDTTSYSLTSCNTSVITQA

gp70 B.CaseA2 V1/V2 = target: T3, gp70 B.CaseA2 V1/V2 (HIV-1 V1V2 on murine leukemia virus gp70); assay: ELISA
T3 construct: also called B.gp70CaseA2 V1/V2; gp70 B.CaseAV1V2
T3 chain: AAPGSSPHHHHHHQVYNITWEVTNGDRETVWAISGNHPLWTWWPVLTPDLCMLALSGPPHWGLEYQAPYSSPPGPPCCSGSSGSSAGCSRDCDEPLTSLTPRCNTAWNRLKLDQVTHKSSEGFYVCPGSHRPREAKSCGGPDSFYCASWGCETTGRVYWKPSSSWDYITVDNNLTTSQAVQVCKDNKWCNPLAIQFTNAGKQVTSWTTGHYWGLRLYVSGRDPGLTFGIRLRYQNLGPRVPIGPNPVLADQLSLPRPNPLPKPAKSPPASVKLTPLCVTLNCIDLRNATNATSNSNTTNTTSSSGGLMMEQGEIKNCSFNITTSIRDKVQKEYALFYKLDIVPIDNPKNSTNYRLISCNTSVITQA

J08 B.HXB2/BALV1V2 = target: T4, J08 B.HXB2/BALV1V2 (HIV-1); assay: ELISA
T4 construct: also called J08 B.HXB/BAL V1V2
T4 chain: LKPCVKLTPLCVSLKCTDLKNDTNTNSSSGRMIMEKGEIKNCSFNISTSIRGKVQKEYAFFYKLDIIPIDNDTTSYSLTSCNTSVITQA

[2] = target: T5, J08 B.HXB2/BALV1V2N156QN160Q (HIV-1); assay: ELISA
T5 chain: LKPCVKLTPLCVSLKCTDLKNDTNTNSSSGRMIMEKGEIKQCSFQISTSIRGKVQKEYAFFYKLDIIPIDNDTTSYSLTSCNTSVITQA

A.9004SS V1V2 Tags = target: T6, A.9004SS V1V2 Tags; assay: ELISA, OD405
T6 Env construct: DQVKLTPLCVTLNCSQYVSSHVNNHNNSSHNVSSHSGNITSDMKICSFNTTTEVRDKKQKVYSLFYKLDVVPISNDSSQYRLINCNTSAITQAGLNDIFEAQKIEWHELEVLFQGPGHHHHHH

AE.con gp140CF = target: T7, AE.con gp140CF; assay: ELISA, OD405
T7 construct: also called AE.con.env03 gp140CF

B.63521 gp140C = assay: ELISA, OD405
B.Case A2 V1/V2 Tags = target: T8, B.Case A2 V1/V2 Tags; assay: ELISA, OD405
T8 Env construct: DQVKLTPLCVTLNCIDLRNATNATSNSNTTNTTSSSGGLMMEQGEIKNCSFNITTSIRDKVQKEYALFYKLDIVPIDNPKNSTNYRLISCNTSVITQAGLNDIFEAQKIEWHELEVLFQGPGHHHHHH

B.con gp140CF = target: T9, B.con gp140CF; assay: ELISA, OD405
T9 construct: also called B.con.env03 gp140CF

Con 6 gp120 = assay: ELISA, OD405
D.9009SA V1V2 Tags = target: T10, D.9009SA V1V2 Tags; assay: ELISA, OD405
T10 Env construct: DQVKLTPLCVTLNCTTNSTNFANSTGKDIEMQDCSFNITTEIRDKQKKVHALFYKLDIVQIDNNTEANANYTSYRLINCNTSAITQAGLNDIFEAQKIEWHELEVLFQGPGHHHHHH

G.con gp140CF = target: T11, G.con gp140CF; assay: ELISA, OD405
T11 construct: also called G.con.env03 gp140CF

B1: CH59 (antibody, V domains shown)
VH: EVQLVESGGGLVQPGRSLRLSCAASGFTFDDGAMHWVRQAPGKGLEWVSGISWNSNIIAYADSVKGRFTISRDNAKNSLYLEMNSLRVEDTALYYCAKDSPRGELPLNYWGQGTLVTVSS
VL: SYELTQPPSVSVSPGQTARITCSGDALPKNYAYWYQQKSGQAPVLVIYEDSKRPSGIPERFSGSSSGTMATLTISGAQVEDEADYYCYSTDSSGNHRVFGGGTKLTVL
notes: also called mAb CH59
- EC50, neutralization of SHIV B.SF162P3 (tier 2) (Env of SHIV SF162P3): > 50 µg/mL
- EC50, neutralization of SHIV B.SF162P4 (tier 2) (Env of SHIV-SF162P4): > 50 µg/mL
- EC50, neutralization of SHIV B.BaL (tier 2) (Env of SHIV-BaL): > 50 µg/mL
- EC50, neutralization of SHIV C.1157ipEL-p (tier 1A) (Env of SHIV-1157ipEL-p): 24.6 µg/mL
- EC50, neutralization of SHIVC.1157ipd3N4 (tier 2) (Env of SHIV-1157ipd3N4): > 50 µg/mL

B2: 697D (antibody, V domains shown)
VH: QVQLVQSGAEVKKPGSSVKVSCKASGGNFNTYTISWVRQAPGQGLEWMGRIIPIFGIVNPAQKFPGRVTINVDKSTNTAYMELSSLRSEDTAVYYCATSGVGLHFGYFDYWGQGTQVTVSS
VL: QSVLTQPPSVSGAPGQRVTISCTGSSSNIGAHYDVHWYQQLPGTAPKLLIYGNSNRPSGVPDRFSGSKSGTSASLAITGLQAEDEADYYCQSYDSSLSGYVFGTGTKVTVL
notes: also called mAb 697D; V2 conformational mAb 697D
- EC50 (gp70 B.HXB2/BALV1V2): 0.64 nM
- EC50 [1]: > 667 nM
- EC50 (gp70 B.CaseA2 V1/V2): 0.05 nM
- EC50 (J08 B.HXB2/BALV1V2): 0.12 nM
- EC50 [2]: 66 nM

B3: PG16 reverted unmutated ancestor antibody (antibody, V domains shown)
VH: QVQLVESGGGVVQPGRSLRLSCAASGFTFSSYGMHWVRQAPGKGLEWVAVISYDGSNKYYADSVKGRFTISRDNSKNTLYLQMNSLRAEDTAVYYCAREAGGPIWHDDVKYYDFNDGYYYYYYMDVWGKGTTVTVSS
VL: QSALTQPASVSGSPGQSITISCTGTSSDVGSYNLVSWYQQHPGKAPKLMIYEVSKRPSGVSNRFSGSKSGNTASLTISGLQAEDEADYYCCSLTDRSHRIFGGGTKLTVL
notes: also called PG16 RUA; PG16_RUA
- binding result (A.9004SS V1V2 Tags): no binding (tested: 10 ug/ml)
- binding result (AE.con gp140CF): no binding (tested: 10 ug/ml)
- binding result (B.63521 gp140C): no binding (tested: 10 ug/ml)
- binding result (B.Case A2 V1/V2 Tags): no binding (tested: 10 ug/ml)
- binding result (B.con gp140CF): no binding (tested: 10 ug/ml)
- binding result (Con 6 gp120): no binding (tested: 10 ug/ml)
- binding result (D.9009SA V1V2 Tags): no binding (tested: 10 ug/ml)
- binding result (G.con gp140CF): no binding (tested: 10 ug/ml)
